The target of assay [1] is Skeletal muscle actin (rabbit) (UniProt P68135).
Assay [2] deals with Arp2/3 complex purified from sheep brain (sheep). Nature of the assay: TIRF microscopy of single actin filaments in microfluidics; branch dissociation rate against GMF concentration (up to 1500 nM), 0.3 μM G-actin, branches aged 30 min (ADP-Arp2/3 complex), average 1 pN pulling force; Michaelis-Menten fit, rapid equilibrium between GMF and the branch junction assumed; apparent dissociation constant; 25°C, pH 7.0, 50 mM KCl.

The target is the same in assay [3].

Regarding “Arp2/3 complex from Saccharomyces cerevisiae (from UniProt P32381 1-391; P47117 1-449)”, the branch renucleation ratio of branches made with budding yeast Arp2/3 complex on mammalian actin in assay [1] is under 10%.

B1: drosophila GMF (glia maturation factor) (natural protein)
chain: MSDNQICDISNEVLEELKKFRFSKSKNNAALILKVDREKQTVVLDEFIDDISVDELQDTLPGHQPRYVIYTYKMVHDDQRISYPMCFIFYTPRDSQIELQMMYACTKSALQREVDLTRVYEIRELDELTEEWLKAKLK
As for B1, the Kd in assay [2] was found to be 260 nM. Moreover, in assay [3], the branch renucleation ratio against GMF concentration (0.3 and 0.6 μM actin): GMF concentration of the half-maximum effect; with 25 nM GMF and 0.6 μM actin the ratio was reduced more than threefold was under 25 nM.

Source of the values: publication PMC10816697.
